The DeepSol protein solubility set

Assay: soluble on expression in E. coli; label from the status in PepcDB or PDB records
With “MAFNGAMSVGAQISDAVILAHSPKSCTHIMYQTISSAGRRTLFERGALLPVSLAPNLESTDMGEAEMIFGGMEKLEEKILELKARQPRAIVVVSACPAGIIGDDIGRTRRFSEPGLPVVTLKTDGNLAGDYLQGMLMAYTSLARQVIRLEHHHHHH” the “soluble on expression in E. coli” value was “not soluble”. For “MAFNQRTVVMIGPGEHYVTAKNEVIKTLLGSCVAVCLYDPKAQVIGMNHFLLAADRRKFTHFLDSRAGYYGVHAMEILINAMLKRGAQRKYLQSKIFGGANVLSLCADNILNHYDIGGMNIDFVRHFLQRERIPIISEDIGGHCGRVIYFDPTDYSVYRSLIEHKYEEIASLQDEEYRYFNQASEDIHSSGVPVVIWSD”, the “soluble on expression in E. coli” value was “soluble”. With “MAGDPMATLTRLFIHPVKSMRGIGLTHALADVSGLAFDRIFMITEPDGTFITARQFPQMVRFTPSPVHDGLHLTAPDGSSAYVRFADFATQDAPTEVWGTHFTARIAPDAINKWLSGFFSREVQLRWVGPQMTRRVKRHNTVPLSFADGYPYLLANEASLRDLQQRCPASVKMEQFRPNLVVSGASAWEEDSWKVIRIGDVVFDVVKPCSRCIFTTVSPEKGQKHPAGEPLKTLQSFRTAQDNGDVDFGQNLIARNSGVIRVGDEVEILATAPAKIYGAAAADDTANITQQPDANVDIDWQGQAFRGNNQQVLLEQLENQGIRIPYSCRAGICGSCRVQLLEGEVTPLKKSAMGDDGTILCCSCVPKTALKLTRLEHHHHHH” the “soluble on expression in E. coli” value was “not soluble”. With “MAGDPMQQSDVISAAKKYMESIHQNDYTGHDIAHVYRVTALAKSIAENEGVNDTLVIELACLLHDTVDEKVVDANKQYVELKSFLSSLSLSTEDQEHILFIINNMSYRNGKNDHVTLSLEGQIVRDADRLDAIGAIGVARTFQFAGHFGEPMWTEHMSLDKINDDLVEQLPPSAIKHFFEKLLKLESLMHTDTAKMIAKERHDFMMMYLKQFFTEWNYHDLEHHHHHH” the “soluble on expression in E. coli” value was “soluble”. In the case of “MAGDPMRFQKIPMNIYEKFHRTFSGSNQDTFNVCSKCGGACEHNKIGTLLPGEKEYMAKKMGMSLSEFKLKYLDVLKMDDGTLIHVLKLGELCPFLNTETELCECRDFKPVICKIYPVVFTVESGKVKFSIDDWCQLSRKKVCRNYFESVIPLLYRLPVPVEWFRHVVSYDDLYFDYDQLRESRKGKSRYAVFTLKELLNFQKEELACHEIETYEPETGRMELYEIKVTSPNIDFCSEIEEPTFLEHHHHHH”, the “soluble on expression in E. coli” value was “soluble”. With “MAGDPMSLKSYSTPTYWQRVKVACQYLFPQLPITRLAGWLAEQKWGMVTHFIIRIFAKQYNVNLAEAEKTNPADYTTFNEFFLRPLKENARPINQDDQAVCLPADGKISELGQINENRLLQAKGHYFTLETLLANDEEMAESFKNGSFITTYLSPRDYHRVHMPCDATLKKMIYVPGDLFSVNSFLAEHIPNLFARNERVICEFETAFGPMVQILVGATITASISTVWAGIINPPRSKDVVEYNYQTTGETAIHLKKGDEMGAFRLGSTVINLFPQATVELVSHLQAGVETRMGERFAKIIKLEHHHHHH” the “soluble on expression in E. coli” value was “soluble”. With “MAGDPMVNRETLIARIEQELVQAEQAQHDHDFEKHMYAIHILTSLYASTSNTPHIGEQQMNRRIANHNQMPQSQITQPTHQVTAAEIEAMGGKVNTHSAHHHNKSYSQPSNQQQRLATDDDIGNGESIFDFLEHHHHHH” the “soluble on expression in E. coli” value was “not soluble”. With “MAGDPMVTQNKKILIITGSFGNGHMQVTQSIVNQLNDMNLDHLSVIEHDLFMEAHPILTSICKKWYINSFKYFRNMYKGFYYSRPDKLDKCFYKYYGLNKLINLLIKEKPDLILLTFPTPVMSVLTEQFNINIPVATVMTDYRLHKNWITPYSTRYYVATKETKQDFIDVGIDPSTVKVTGIPIDNKFETPINQKQWLIDNNLDPDKQTILMSAGAFGVSKGFDTMITDILAKSANAQVVMICGKSKELKRSLTAKFKSNENVLILGYTKHMNEWMASSQLMITKPGGITITEGFARCIPMIFLNPAPGQELENALYFEEKGFGKIADTPEEAIKIVASLTNGNEQLTNMISTMEQDKIKYATQTICRDLLDLIGHSSQPQEIYGKVPLYARFFVKLEHHHHHH” the “soluble on expression in E. coli” value was “not soluble”. In the case of “MAGDPMWKTDVKLNADKFRKIDVHSHIQVLGYPFNVSITPQEFLSLMEAYNIEVAIISDVDNENIAKIVREYPDKLVGIYWANPRDKNSIKEAEKFLEKFEFRGIKLHPLLNMFSPADPKVEDIMRIAEEFNVHVQVHSGHPPTSLPWQIEELARKFPEVKIVMVHMGHGNAYYIQGAIEVAERNENVYLETSGMPMPSKIAEAYKVAPKRVVFGIDLPCHHPVVEIAKVLTSGLDEKGMERVFYENAKVLLLEHHHHHH”, the “soluble on expression in E. coli” value was “not soluble”. For “MAGDPNSMFSPQASAAYDDLHEGYATYTGSGYSGGAFLLDPIPSDMEITAINPADLNYGGVKAALAGSYLEVEGPKGKTTVYVTDLYPEGARGALDLSPNAFRKIGNMKDGKINIKWRVVKAPITGNFTYRIKEGSSRWWAAIQVRNHKYPVMKMEYEKDGKWINMEKMDYNHFVSTNLGTGSLKVRMTDIRGKVVKDTIPKLPESGTSKAYTVPGHVQFPELEHHHHHH”, the “soluble on expression in E. coli” value was “soluble”. In the case of “MAGDYSYDAVKREYVIGSDMTSYAHEVFAAAKPMDIRHNDLPQPDSVIDVTVSTTEWPEGDSNYPINPKLVFTNHSNVAIPGGSTIEFLMPTSSGDIVKDWSGAGLKVIESGHTGSNFSVNGEKKLFHKVAVTLRSTETIPAGGEYSVDMVYYTPVSGVANGVRFIVGNETVGLKKDFPTLPALEHHHHHH”, the “soluble on expression in E. coli” value was “soluble”. In the case of “MAGFMKNAMSYLGMSDVVDDEDDYIEEDEEQKPASKSAFDSDHTVTPLASTTAPAASSTTKPFPGGRVNRITTIHPKSYEDAQLVGRALRDGVPVVLNLTGVAEAVAYRIVDFSAGVVFGVRGSLERVTPRVFLLSPAQVNIKVEEPTKPASAHDLFADAAALEHHHHHH”, the “soluble on expression in E. coli” value was “not soluble”. In the case of “MAGIAMKLAKDREAAEGLGSHERAIKYLNQDYETLRNECLEAGALFQDPSFPALPSSLGFKELGPYSSKTRGIEWKRPTEICADPQFIIGGATRTDICQGALGDSWLLAAIASLTLNEEILARVVPLDQSFQENYAGIFHFQFWQYGEWVEVVVDDRLPTKDGELLFVHSAEGSEFWSALLEKAYAKINGCYEALSGGATTEGFEDFTGGIAEWYELRKPPPNLFKIIQKALEKGSLLGCSIDITSAADSEAVTYQKLVKGHAYSVTGAEEVESSGSLQKLIRIRNPWGQVEWTGKWNDNCPSWNTVDPEVRANLTERQEDGEFWMSFSDFLRHYSRLEICNLTPDTLTCDSYKKWKLTKMDGNWRRGSTAGGCRNYPNTFWMNPQYLIKLEEEDEDDEDGERGCTFLVGLIQKHRRRQRKMGEDMHTIGFGIYEVPEELTGQTNIHLSKNFFLTTRARERSDTFINLREVLNRFKLPPGEYVLVPSTFEPHKNGDFCIRVFSEKKADYQTVDDEIEANIEEIEANEEDIGDGFRRLFAQLAGEDAEISAFELQTILRRVLAKREDIKSDGFSIETCKIMVDMLDEDGSGKLGLKEFYILWTKIQKYQKIYREIDVDRSGTMNSYEMRKALEEAGFKLPCQLHQVIVARFADDELIIDFDNFVRCLVRLEILFKIFKQLDPENTGTIQLDLISWLSFSVLGKLAAALEHHHHHH”, the “soluble on expression in E. coli” value was “soluble”. For “MAGTTTYELIDYLEGKDILVVSNGLSHIDTLIQKNIKCYVIGGNIKISTKAITGCDALMCLSKFRFDKCFIGANGVHHTYGLTTPDTEEAILKECAINNSRKAYVLADDSKFGEISTIKFSDINKCVIITNEKPKDNTYDKKTDIKVVDILEHHHHHH”, the “soluble on expression in E. coli” value was “not soluble”. In the case of “MAGVAEFNDKGELLLPKNYREWVMVGTQVTPNELNDGKAPFTEIRTVYVDPESYAHWKKTGEFRDGTVTVKELVSVGDRKGPGSGNGYFMGDYIGLEASVKDSQRFANEPGNWAFYIFYVPDTPLVAAAKNLPTAECAACHKENAKTDMVFTQFYPVLRAAKATGESGVVAPKKLAAALEHHHHHH”, the “soluble on expression in E. coli” value was “soluble”. In the case of “MAGVKYPGQDPVDLDIYQSSHMVDYQPYRKHKYSRVTPQEQAKLDAQLRDKEFYRPIPNPNPKLTDGYPAFKRPHMTAKDLGLPGFFPSQEHEATREDERKFTSTCHFTYPASHDLHLAQGDPNQVLQSADFPCLVDPKHQPAAEMAKGYLLLPGCPCLHCHIVKVPILNRWGPLMPFYQ”, the “soluble on expression in E. coli” value was “not soluble”.
